Assay results taken from patent US20110045570.

Columns and labels:
[1] = molecular target: T1, N-carbobenzoxy-Pro-citrulline-p-nitroanilide
T1 chain: P

[2] = molecular target: T2, N-succinyl-Ala-Ala-Pro-Met-p-nitroanilide
T2 chain: AAPM

[3] = molecular target: T3, N-succinyl-Ala-Ala-Val-Ala-p-nitroanilide
T3 chain: AAVA

[4] = molecular target: T4, N-carboxybenzoxy-Phe-Val-Arg-p-nitroanilide
T4 chain: FVR

[5] = molecular target: T5, N-glutaryl-Ala-Ala-Pro-Leu-p-nitroanilide
T5 chain: AAPL

[6] = molecular target: T6, butyroxycarboxy-Leu-Ser-Thr-Arg-p-nitroanilide
T6 chain: LSTR

[7] = molecular target: T7, N-succinyl-Ala-Ala-Pro-Phe-p-nitroanilide
T7 chain: AAPF

[8] = molecular target: T8, N-succinyl-Ala-Ala-p-nitroanilide
T8 chain: AA

[9] = molecular target: T9, N-succinyl-Gly-Gly-Phe-p-nitroanilide
T9 chain: GGF

[10] = molecular target: T10, N-methoxysuccinyl-Ala-Ile-Pro-Met-p-nitroanilide
T10 chain: AIPM

[11] = molecular target: T11, N-p-tosyl-Gly-Pro-Lys-p-nitroanilide
T11 chain: GPK

[12] = molecular target: T12, N-succinyl-Ala-Ala-Ala-p-nitroanilide
T12 chain: AAA

B1: alkaline protease ALTP (protein)
chain: AQSTPWGVTRVQAPNVWNRGFTGSGVRVAVLDTGIHSSHEDLTVSGGYSVFGDSPYNDVQGHGTHVAGTIAARNNSVGVIGVAYNAQLYAVKVLNNQGSGTLAGIAQGIEWARQNNMHVINMSLGGTSGSTTLQNAVNAAYNAGILVVAAAGNSGNSAGTGDNVGFPARYPNAMAVAATTSGNVRASFSSTGPAVEIAAPGQDINSTYPTNTYRSLNGTSMAAPHVAGVAALLKSARPAVTAAGIRNAMNSTALNLGNSNWYGNGLVRANNALDMVLSY
[1]
  activity to synthetic substrate (p-nitroaniline liberated): It showed activity to ... N-carbobenzoxy-Pro-citrulline-p-nitroanilide (CBZ-Pro-Cit)
[2]
  Relative activity (%): 74%
[3]
  Relative activity (%): 4.6%
[4]
  activity to synthetic substrate (p-nitroaniline liberated): It showed activity to ... N-carboxybenzoxy-Phe-Val-Arg-p-nitroanilide (Z-FVR)
[5]
  Relative activity (%): 91%
[6]
  activity to synthetic substrate (p-nitroaniline liberated): It showed activity to, besides the foregoing synthetic substrates, butyroxycarboxy-Leu-Ser-Thr-Arg-p-nitroanilide (LSTR)
[7]
  Relative activity (%): 100%
[8]
  activity to synthetic substrate (p-nitroaniline liberated): It showed activity to ... N-succinyl-Ala-Ala-p-nitroanilide (AA)
Acidic insulin B-chain
  initial cleavage site (LC/MS/MS of digestion fragments): alkaline protease ALTP of the invention first cleaves Leu-Tyr
  peptide bonds cleaved within 24 hours (300 ng enzyme, LC/MS/MS): 26 peptide bonds of 29 peptide bonds except Phe-Val and Thr-Pro-Lys bonds are cleaved within 24 hours
[9]
  activity to synthetic substrate (p-nitroaniline liberated): It showed activity to ... N-succinyl-Gly-Gly-Phe-p-nitroanilide (GGF)
[10]
  Relative activity (%): 90%
[11]
  activity to synthetic substrate (p-nitroaniline liberated): It showed activity to ... N-p-tosyl-Gly-Pro-Lys-p-nitroanilide (To-GPK)
[12]
  activity to synthetic substrate (p-nitroaniline liberated): It showed activity to ... N-succinyl-Ala-Ala-Ala-p-nitroanilide (AAA)
